From patent US6475781

Key:
[1] = biological target: human PDGF-B (c-sis) (human) (UniProt P01127); assay: cell-based or functional assay
[2] = biological target: wildtype murine PDGF A chain (murine) (UniProt P20033); assay: cell-based or functional assay

Chain of human PDGF-B (c-sis) (human) (P01127 82-190 limits assumed): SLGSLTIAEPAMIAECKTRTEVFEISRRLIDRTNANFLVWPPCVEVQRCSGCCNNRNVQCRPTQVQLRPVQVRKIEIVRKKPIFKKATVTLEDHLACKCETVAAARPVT

growth of PDGF-B (c-sis) transformed Balb/c 3T3 sublines in PPP-supplemented medium [1]: 90 % inhibition | growth of PDGF-A transformed Balb/c 3T3 sublines in PPP-supplemented medium (% suppression) [2]: 70
Substance: PDGF A dominant negative mutant 1308 (murine PDGF A chain with the third cysteine residue changed to serine) (from UniProt P20033 87-196) (ligand)
